Results: article PMC9832833, “Mitogen-activated protein kinase 14-mediated phosphorylation of MaMYB4 negatively regulates banana fruit ripening”

Columns and labels:
[1] = biological target: GST-MaMYB4 (Musa acuminata (banana), UniProt A0A804HW33 1-241); assay: EMSA; without MBP-MaMPK14; EMSA buffer not stated (kit per cited Fan et al.); kinase preincubation in 20 mM Tris-HCl, 20 mM MgCl2, 100 mM NaCl, 10 mM ATP, 2 mM DTT, 0.5 h at 30 C; pH not; details: protein: recombinant; tags: GST (N-term, pGEX-4T-1); label: biotin; blunt
[2] = biological target: T1, MBP-MaMPK14 (Musa acuminata (banana), UniProt A0A804IKS6 1-366); assay: EMSA; MBP-MaMPK14 alone; EMSA buffer not stated (kit per cited Fan et al.); kinase preincubation in 20 mM Tris-HCl, 20 mM MgCl2, 100 mM NaCl, 10 mM ATP, 2 mM DTT, 0.5 h at 30 C; pH not; details: protein: recombinant; tags: MBP (N-term, pMAL-c2X); label: biotin; blunt
T1 sequence: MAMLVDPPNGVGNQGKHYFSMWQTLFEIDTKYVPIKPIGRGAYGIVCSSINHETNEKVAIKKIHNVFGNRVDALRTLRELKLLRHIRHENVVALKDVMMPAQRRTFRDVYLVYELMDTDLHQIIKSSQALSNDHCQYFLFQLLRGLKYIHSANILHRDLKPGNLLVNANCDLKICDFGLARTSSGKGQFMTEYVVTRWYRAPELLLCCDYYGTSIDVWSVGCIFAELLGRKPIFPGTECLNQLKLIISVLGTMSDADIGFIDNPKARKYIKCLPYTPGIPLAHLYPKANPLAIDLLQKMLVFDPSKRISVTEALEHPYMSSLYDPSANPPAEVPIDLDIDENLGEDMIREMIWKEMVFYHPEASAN

Sequence of GST-MaMYB4 (A0A804HW33 entry or part of it): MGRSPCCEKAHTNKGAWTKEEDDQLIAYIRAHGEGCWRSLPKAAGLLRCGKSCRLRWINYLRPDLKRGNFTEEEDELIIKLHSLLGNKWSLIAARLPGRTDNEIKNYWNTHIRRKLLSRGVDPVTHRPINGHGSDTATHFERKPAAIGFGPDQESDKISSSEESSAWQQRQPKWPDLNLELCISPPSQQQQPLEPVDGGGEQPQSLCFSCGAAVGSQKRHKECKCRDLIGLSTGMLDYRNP

B1: MaACS1 promoter probe (dsDNA)
DNA 1: CCAAAAACAGGGTAGGTGGATGGCTTACATGCTCACCTAATAATTTATTT
DNA 2: AAATAAATTATTAGGTGAGCATGTAAGCCATCCACCTACCCTGTTTTTGG
B1: binds [1]; no binding [2].
